Columns and labels:
[1] = target: cNTnC N-terminal domain (Homo sapiens) (UniProt P63316); details: cited from earlier work
[2] = target: cTnC(C35S)-i9: cardiac troponin C (C35S) with the levosimendan analog i9 covalently bound to C84 (UniProt P63316); assay: NMR titration; 19F NMR; 530 μM Ca2+-saturated cTnC(C35S)-i9 in NMR buffer (100 mM KCl, 10 mM imidazole, 2 mM CaCl2, pH 6.9), 30 °C, titrated with switch-cTnI (144–163) 0 to 1,540 μM; area under the F4′ signal of i9 fit with one-to-one stoichiometry (xcrvfit)

switch-cTnI 144-163, sequence (P19429 144-163): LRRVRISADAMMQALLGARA

| Substance | Kd [1] [µM] | Kd [2] [µM] |
| --- | --- | --- |
| switch-cTnI 144-163 (from UniProt P19429) | 26 |  |
| switch-cTnI (residues 144–163) (peptide) |  | 74 |
